Source: patent US7517959B2, “SOCS3 proteins” (Walter and Eliza Hall Institute of Medical Research, priority 2005, dated 2009)
Entries after “also recorded” stand apart in the source; their conditions may differ.

Key:
SOCS3 = SOCS3 (Mus musculus, UniProt O35718); details: result in words; cited from earlier work
[1] = depending on the cell type; cited from earlier work
293T cells = experiment: Pulse chase half-life experiments in 293T cells; type: cell-based; details: for effect of proteasome inhibitor MG132 on half-life: 10 μM MG-132, over eight hours; for labelled protein remaining: after 8 hr; for intracellular stability / turnover: pulse chase, result in words
Text: FIG. 9. Removing the PEST motif improves the intracellular half-life of SOCS3 and affects its degradation mechanism. • (A) Duplicate pulse chase experiments in 293T cells performed after transfection of (upper panel) wild-type (1-225) or ΔPEST (Δ129-163) SOCS3 DNA and (lower panel) ΔNC-SOCS3 (22-185) or ΔNC-Δ129-163 (22-185 ΔPEST) SOCS3 DNA. The amount of labelled protein remaining is shown as a perceintage of initial levels and plotted as a semi-log graph. […] Duplicate experiments are shown in each panel • (B) Removing the PEST motif alters the intracellular degradation pathway of SOCS3. Pulse chase experiments were performed on 293T cells transfected with wild-type SOCS3 (black) or ΔPEST SOCS3 (grey) and incubated in the presence (hashed bars) and absence (solid bars) of MG-132, a proteasome inhibitor. Experiments were performed in duplicate according to the protocol in (A) but with the addition of 10 μM MG-132 and the protein levels monitored over eight hours.
293T cells (5×10^5 cells/well) were transfected with 1.5 μg of the appropriate SOCS3 expression construct as described above. 48 h after transfection cells were washed twice in PBS and incubated for 1 h in Met/Cys-free DME (Gibco-BRL). Cells were then incubated for 30 min in DME containing 0.15 mCi/ml [^35S]Met/Cys (Perkin-Elmer) followed by DME+10% Foetal calf serum (Sigma)+2 mM Cys+2 mM Met for various times, upon which cells were lysed in KALB lysis buffer (1 mM EDTA, 150 mM NaCl, 50 mM Tris-Cl, 1% Triton X-100, pH 7.5) and the amount of [^35S]-labelled SOCS3 was determined by immunoprecipitation using anti-Flag tag M2 beads (Sigma). Detection and quantification was carried out using a FujiFilm FLA-3000 phosphoimager and associated software.
Intracellular levels of SOCS3 are strongly regulated by proteolysis. Two regions of the protein have been implicated previously in regulating proteolysis, Lys6 in the N-terminal domain and the C-terminal SOCS box (Chen et al., 2002; Kamura et al., 1998; Sasaki et al., 2003). As PEST motifs are known to be signals for protein degradation in vivo (Rogers et al., 1986), we measured the half-life of SOCS3 proteins that lacked the PEST motif, as well as constructs lacking the SOCS box and the N-terminal region. […] As the SOCS box and the N-terminal domains also affect SOCS3 turnover we further examined the effect of deleting these regions. The decrease in SOCS3 degradation upon removing the PEST motif from either the full-length protein (upper panel) or from SOCS322-185 (which lacks both the N-terminal domain and SOCS box, lower panel) was significant.
As PEST motifs have been associated with proteasome-mediated degradation, we investigated whether proteasome inhibitors would have an effect on the half-life of SOCS3 in 293T cells. […] After 8 hr in the presence of MG132 approximately 65% of ΔPEST SOCS3 remained, compared with ca. 45% in its absence. […] Thus it appears that, in 293T cells, the proteasomal pathway is an important route for ΔPEST SOCS3 degradation but that wild-type SOCS3, which contains the PEST motif, is efficiently degraded via another mechanism.

[2] = Procedure: (§1) Pelleted bacterial cells were resuspended in PBS and then lysed by homogenisation. The lysate was centrifuged at 20,000 g and the pelleted inclusion bodies solubilised using 6M GdnHCl. The protein was then purified using Ni-NTA resin (Qiagen) by binding at pH 8.0, washing at pH 6.3 and eluting at pH 4.5, all in 6M GdnHCl. The eluted protein was diluted to 0.1 mg/mL and a final GdnHCl concentration of 4 M and then refolded by extensive dialysis against 25 mM sodium phosphate, 50 mM sodium chloride, 5 mM 2-mercaptoethanol at pH 6.7.
All constructs contained the SH2 domain, as defined by sequence homology (Okazaki et al., 2002), but included differing lengths of sequence outside this region.
The six mutants (A50D, G53R, L58E, A62E, A65E, G99D) were all cloned and expressed in E. coli as part of a 22-185 construct.

[3] = target: tyrosine phosphorylated peptide from gp130 (Mus musculus, UniProt Q00560, Q756E); experiment: Binding studies and isothermal titration calorimetry (ITC) with gp130 peptide; details: for ΔH: FIG. 4 titration, fit to single site binding isotherm
Procedure: as §1

[4] = tested on: LIF-induced Stat3 activity; experiment: Stat3-responsive luciferase assay in 293T cells; type: cell-based; details: 100 or 300 ng cDNA, 10 ng/ml LIF overnight
Text: FIG. 8. […] Backbone amide chemical shift differences between residues in wild-type SOCS3 and ΔPEST SOCS3, which has residues 129-163 replaced by […] (SEQ ID NO:10), are plotted against residue number; amide proton and nitrogen chemical shift differences were averaged according to Δδav, a weighted average of the ^15N and ^1HN chemical shifts as follows: Δδav={0.5[Δδ(^1HN)^2+(0.2Δδ(15N))^2]}^1/2 (Pellecchia et al., 1999). The position of the PEST sequence is marked by a double asterisk. • (B) SOCS3 PEST deletion mutants are able to inhibit STAT activation. 293T cells were transiently transfected with 100 or 300 ng cDNA expressing various Flag-tagged SOCS-3 proteins in the presence of the Stat3-responsive reporter gene. […] Upper panel: Luciferase activity from triplicate samples was determined and normalized against Renilla luciferase activity. Lower panel: Lysates were analysed by Western blot with anti-Flag antibody. […]
Firefly and Renilla luciferase activities were quantified using substrate reagents from the Luciferase Assay Dual-Reporter kit (Promega, Madison Wis.) and an automated LUMIstar Galaxy plate reader (BMG Technologies, Offenburg, Germany). SOCS3 protein expression was analysed by Western blot with polyclonal rat anti-Flag antibody (Drs. D. Huang & L. O'Reilly, The Walter and Eliza Hall Institute of Medical Research, Melbourne, Australia) as described (Nicholson et al., 1999). […]

Sequence of SOCS3 (O35718 whole entry): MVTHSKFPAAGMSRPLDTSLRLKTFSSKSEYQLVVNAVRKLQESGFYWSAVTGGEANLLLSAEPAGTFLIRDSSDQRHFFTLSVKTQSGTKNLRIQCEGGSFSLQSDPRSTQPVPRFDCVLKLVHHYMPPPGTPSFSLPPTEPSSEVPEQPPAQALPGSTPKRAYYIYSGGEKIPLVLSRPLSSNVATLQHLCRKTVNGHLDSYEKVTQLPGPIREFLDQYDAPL

ΔH [3] [kcal/mol] | Molecule | effect of proteasome inhibitor MG132 on half-life (293T cells) | solubility (in words) [2] | intracellular stability / turnover (293T cells) | further results
 | STASTVEpYSTVVHSG [phosphotyrosine peptide from gp130] |  |  |  | binding to mouse SOCS3 (SOCS3): bind with high affinity
 | wild-type SOCS3: Wild-type (1-225) murine SOCS3, Flag-tagged in the cell assays; SEQ ID NO:1 | did not affect the half-life; also recorded: no effect on the half-life | too low for structure determination |  | half-life [1]: under 5 minutes to over 8 hours; labelled protein remaining (293T cells; MG132 state not specified (no effect on wild-type)): 25%
-6.2 | SOCS3(22-185): Mouse SOCS3 residues 22-185 with KIR and extended SH2 domain, lacking the C-terminal SOCS box (protein) LKTFSSKSEYQLVVNAVRKLQESGFYWSAVTGGEANLLLSAEPAGTFLIRDSSDQRHFFTLSVKTQSGTKNLRIQCEGGSFSLQSDPRSTQPVPRFDCVLKLVHHYMPPPGTPSFSLPPTEPSSEVPEQPPAQALPGSTPKRAYYIYSGGEKIPLVLSRPLSSN |  | highest solubility |  | soluble to [2]: ≈ 0.5 mM
-6.4 | SOCS3(22-185)(Δ129-163): 22-185 construct with Pro129-Arg163 replaced by an eight residue (Gly-Ser)x4 linker; SEQ ID NO:3 (protein, listed as Mus musculus) LKTFSSKSEYQLVVNAVRKLQESGFYWSAVTGGEANLLLSAEPAGTFLIRDSSDQRHFFTLSVKTQSGTKNLRIQCEGGSFSLQSDPRSTQPVPRFDCVLKLVHHYMGSGSGSGSAYYIYSGGEKIPLVLSRPLSSN |  |  | improved its in vivo stability | binding to the gp130 peptide ([3]; result in words): binds to the gp130 peptide
 | ΔPEST SOCS3: Full-length SOCS3 lacking the PEST sequence (Δ129-163), Flag-tagged (protein) LKTFSSKSEYQLVVNAVRKLQESGFYWSAVTGGEANLLLSAEPAGTFLIRDSSDQRHFFTLSVKTQSGTKNLRIQCEGGSFSLQSDPRSTQPVPRFDCVLKLVHHYMGSGSGSGSAYYIYSGGEKIPLVLSRPLSSN | dramatically increased the half-life; also recorded: significantly increased the half-life |  | improved its in vivo stability | labelled protein remaining (293T cells; in the absence of MG132): ca. 45%; labelled protein remaining (293T cells; in the presence of MG132 (10 μM)): approximately 65%; ability to inhibit LIF-induced Stat3 activity [4]: did not alter the ability of SOCS3 to inhibit LIF-induced Stat3 activity
 | SOCS3(22-225): Mouse SOCS3 residues 22-225 containing KIR, extended SH2 domain and SOCS box (protein) LKTFSSKSEYQLVVNAVRKLQESGFYWSAVTGGEANLLLSAEPAGTFLIRDSSDQRHFFTLSVKTQSGTKNLRIQCEGGSFSLQSDPRSTQPVPRFDCVLKLVHHYMPPPGTPSFSLPPTEPSSEVPEQPPAQALPGSTPKRAYYIYSGGEKIPLVLSRPLSSNVATLQHLCRKTVNGHLDSYEKVTQLPGPIREFLDQYDAPL |  | too poorly soluble |  | solubility in NaCl/Pi [2]: < 1000 µg/mL
